{
  "source": "paper PMC10729762",
  "about": "“CsrA selectively modulates sRNA-mRNA regulator outcomes”",
  "binders": {"B1": {"name": "ChiX (structured_RNA)", "RNA": "ACACCGUCGCUUAAAGUGACGGCAUAAUAAUAAAAAAAUGAAAUUCCUCUUUGACGGGCCAAUAGCGAUAUUGGCCAUUUUUUU"}, "B2": {"name": "McaS (structured_RNA)", "RNA": "ACCGGCGCAGAGGAGACAAUGCCGGAUUUAAGACGCGGAUGCACUGCUGUGUGUACUGUAGAGUCUGGCGGAUGUCGACAGACUCUAUUUUUU"}, "B3": {"name": "FnrS (structured_RNA)", "RNA": "GCAGGUGAAUGCAACGUCAAGCGAUGGGCGUUGCGCUCCAUAUUGUCUUACUUCCUUUUUUGAAUUACUGCAUAGCACAAUUGAUUCGUACGACGCCGACUUUGAUGAGUCGGCUUUUUUUU"}},
  "data": [
    {"target": "CsrA;Hfq (Escherichia coli K-12 …, UniProt P69913;P0A6X3 1-61;1-102, |)", "sequence (P69913 whole entry, chain 1 of 2)": "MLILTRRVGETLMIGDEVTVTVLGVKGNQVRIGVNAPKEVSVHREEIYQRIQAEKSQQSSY", "sequence (P0A6X3 whole entry, chain 2 of 2)": "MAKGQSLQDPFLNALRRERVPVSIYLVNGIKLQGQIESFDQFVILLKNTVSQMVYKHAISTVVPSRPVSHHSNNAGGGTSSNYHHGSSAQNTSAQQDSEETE", "assay": "EMSA; 6 uM CsrA + Hfq, likely ternary complex; 10 nM denatured RNA, 0-6 uM CsrA, 0-3 uM Hfq; 1X binding buffer (10 mM Tris-HCl pH 7.5, 10 mM MgCl2, 100 mM KCl) plus CsrA dilution buffer, 11% glycerol, 20 mM", "details": "protein: recombinant;recombinant; tags: ;; chain copies: 2;6; label: internal 32P-UTP", "values": [
      {"binder": "B1", "binding result": "binds"},
      {"binder": "B2", "binding result": "binds"},
      {"binder": "B3", "binding result": "binds"}
    ]}
  ]
}
